In US20120207760A1 (THERACLONE SCIENCES, published 2012):

B1: TCN-550 (5096_F06) (antibody, V domains shown)
VH: QVQLQESGPGLVKPSETLSLTCTVSGASINSHYWSWIRQPPGKGLEWIGYVYYSGSTTYNPSLKSRVTLSVDTSKNQFSLNLSSVTAADTAFYYCARHPYDVLTGSGDWFDPWGQGTLVTVSS
VL: SYVLTQAPSVSVAPGQTARITCGGNAIGSKKVHWYQHKAGQAPVLVVYDDTDRPSGIPERFSGSNSWSTATLTINRVEAGDEADYYCQVWDFTIDHVVFGGGTKLTVL
B2: TCN-557 (5081_A04) (antibody, V domains shown)
VH: QVQLVQSGAEVKKPGASVKVSCKASGHTFTGYYIHWVRQAPGQGLEWMGWINPDSGATSSAQNFQGRVTMTGDTSSSTAYMELSRLSFDDTAVYYCARVLFTSPFDFWGEGTLVTVSS
VL: QAVVTQEPSLAVSPGGTVTLTCGSSTGAVTRGHYPYWFQQKPGQAPRALIYDSAGNRHSWTPARFSGSLLGGKAALTLSGAQPEDEAEYYCLLSYSGVWVFGGGTKLTVL
B3: TCN-555 (5246_L16) (antibody, V domains shown)
VH: QVQLVQSGAEVKRPGSSVKVSCTASGGIFRKNAISWVRQAPGQGLEWMGGIIAVFNTANYAQKFQNRVKITADESGNTAYMELSSLTSDDTAVYYCASHPKYFYGSGSYPDFWGQGTLVTVSS
VL: QSALTQPRSVSGSPGQSITISCTGGSSDIGASNSVSWYQQHPGKAPKLVIFDVTERPSGVPHRFSGSKSGNTASLTVSGLQPDDEADYFCCAYGGKYLVVFGGGTKVTVL
B4: TCN-549 (5092_P04) (antibody, V domains shown)
VH: QVQLVQSGAEVKKPGASVKVSCKASGYTFTGYYMHWVRQAPGQGLEWMGWINPNSGDTNYAQKFQGRVTMTRDTSITTAYMELSSLRSDDTAVYYCARDSPYSSSWSFFDYWGQGPLVTVSS
VL: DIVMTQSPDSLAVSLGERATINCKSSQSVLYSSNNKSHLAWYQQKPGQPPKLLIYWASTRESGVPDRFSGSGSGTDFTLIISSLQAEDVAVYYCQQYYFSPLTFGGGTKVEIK
B5: TCN-556 (5089_K12) (antibody, V domains shown)
VH: QVQLVQSGAEVKKPGASVKVSCKASGYTFIGYDMHWVRQAPGQGLEWMGWINAKRGGTNYAQKFQGRVTMTRDTSISTAYMELNSLRSDDTAVYYCARGVGSRTTIFGVLNPEFDYWGQGTLVTVSS
VL: QSALTQPPSASGSPGQSVTISCTGSSSDVGGYDYVSWYQQHPGKAPKLLIYEVTKRPSGVPDRFSGSKSGNTASLTVSGLQAEDEADYYCSSYAGNYNHVFGPGTKVTVL
B6: TCN-551 (5243_D01) (antibody, V domains shown)
VH: EVQLVQSGSEVKKPGESLKISCKGSGYSFSNYWIGWVRHMPGKGLEWMGIIYPGDSDTRYSPSFQGQVTMSADKSSSTVYLQWSSLKASDTAIYYCARRGGHSFGYGSGGDTHSEFDSWGQGTLVTVSS
VL: QSVLTQSPSVSAAPGQKVTISCSGSDSNIGDYFVCWYQHLPGKPPQLLIYENNKRPSGIPDRFSGSKSGTSATLGITGIQTGDEADYYCATWDGSLSAWVFGGGTKLTVL
B7: TCN-553 (5261_C18) (antibody, V domains shown)
VH: QVQVVQSGTEVKKPGSSVKVSCQTSGGRFMSYAITWVRQAPGQGLEWMGGIVPVFGTANYAQKFQGRVTITTDDSTRTAYMELSSLRSEDTAVYYCGFRYGSGYGFDSWGQGTLVTVSS
VL: EIVLTQSPGTLSLSPGERATLSCRASQSVSSSYLAWYQKKPGQAPRLLIYGASTRATGIPDRFTGSGSGTDFTLSISRLEPEDFAVYYCQHFGTSVFTFGGGTKVEIK
B8: TCN-560 (5084_P10) (antibody, V domains shown)
VH: EVQLVESGGGLVQPGGSLRLSCAASGFIFRNYWMSWVRQAPGKGLEWVANIKQDGREKYYVDSLRGRVNISRDNAENSLYLHMNSLRVEDTAVYFCARARMVVVTGDGFDVWGHGTMVTVSS
VL: DIQMTQSPSSLSASVGDRVTITCRASQNIKRYFNWYQQKPGKAPKLLIYAASNLENGVPSRFSGSGSGTDFTLTISSLQPEDFATYYCQQSFSKSWTFGQGTNVDIK
B9: TCN-552 (5249_I23) (antibody, V domains shown)
VH: QVQVVQSGAEVKKPGSSVRVSCQASGGTFMNYAIIWVRRAPGQGLEWMGGIIPVFPTPNYAQMFQGRVTISTDESRSTSFLELTNLRYEDTAVYYCARRIYHGGNSGFDFWGQGTLVTVSS
VL: EIVLTQSPATLSLSPGERATLSCRASQSVGNYLAWYQQKPGQAPRLLIYDSSNRAPGIPARFSGSGSGTDFTLTISSLAPEDFAVYYCQQRSKWPPMYSFGHGTKLEIK

Target: Hemagglutinin of influenza A/Solomon Islands/3/06 (H1N1), on inactivated whole virions (Influenza A virus A/Solomon …)
Experiment: ELISA, B cell culture supernatant on inactivated whole virions

| Binder | OD450 |
| --- | --- |
| B1 | 0.06 OD450 |
| B2 | 2.32 OD450 |
| B3 | 2.89 OD450 |
| B4 | 0.09 OD450 |
| B5 | 2.7 OD450 |
| B6 | 3.35 OD450 |
| B7 | 3.6 OD450 |
| B8 | 3.63 OD450 |
| B9 | 3.57 OD450 |
